The values that follow are results of earlier work, collected in publication PMC2990782 (Gene therapy, 2010).

For this data set the following is noted: i.v. dosed polyplex; ref [22].

For PEG-Cys-Trp-Lys18, the “time to complete metabolism of plasmid DNA in the circulation” value is listed as ≤ 3 min.
